Results published in the DeepSol protein solubility set.

Experiment: soluble on expression in E. coli; label from the status in PepcDB or PDB records

Sequence: MIAILTDKPNVGKEIARILGAHTREDGYMSGNGYMVTWTFGNMLSLAMPKDYGMDRPERGDFPINPAPFRLMVKHIKTDTGWIPDINAVLQLKVIEKVFDACESIIAATDASREGEMVFRYLYRYLECRKSYRRLWISSLTDEAVLEGMDNLRPGSLYDHMFLAADSRNKADWVLGLNASYALCQATGTGNNSLGRVQTPILAAISSRYRERENHIATDTFPVFISLCKNNTLLKMRCTEEFTDREAAARLYSDCKLAGHARVTAVSRQVREIEPPALYNLTELQKDANNYYGMTAGKSLEIAQKLYEKKLISYPRTAGRFLPRDVYDKLPRIMEKILNRKEFRPYVRSMGINIFDLPDKVVDEGQAAEHHAIIITDTYPEGLNREEMQLYMMIIGRMLEAFMPVCRAEYTTVDAVCAARNFRCHACRIIEKGWFGIFERESVIAGREYGFSPIPQLENGETAAVTGCSLIHRKDLTVSAYTDAELITYMDTAGLGTAATRTGILQTLIDRKYVRYSGKYIIPTRKGLYIYETVRNMKIAETALTSGWEAQLARMERGKLTQEEFMKGVLKLSREVTEDIFRKCER
- soluble on expression in E. coli: not soluble

Sequence: MSLIPIVASSPSPLISGDGDDALRQIGLLHERSAPLGAMMIDHGPDIGERSPVFSMTTIDGVPVTVGRAVSPGRPSLLMFTGPSCPICQKLLPIIRSVAATEGADVILISDGTQAEHREFLRNHPLDGEHYVVSAEIGMRYQVSKVPYGVLLDKDGVIQAKGLCNTREHVESLFETTRVGHSTLQNFLKHGVEDASKHEGHHHHHH
- soluble on expression in E. coli: soluble

Sequence: MLIVGINGSPKKEGNTKYLINTVLEEAKSQGVETMVLEVGELLNSVKNPFCVVCSNPCSSICYKGTKLEEAYEILKKADAIVMGSPVYFGSVSAQLKAFFDKTRKLRSEKALYNKFACGVTVGGARFGGQETTMKALHDIMLVHGMTIVGDGYVGDDCGHHGVCAQQPADKDEFAIKRAKILGRRLVDVCKKAGA
- soluble on expression in E. coli: not soluble

Sequence: MVRVPLTAEELERGQRLGELLRSARGDMSMVTVAFDAGISVETLRKIETGRIATPAFFTIAAVARVLDLSLDDVAAVVTFGPVSTS
- soluble on expression in E. coli: soluble

Sequence: RAIGQIRSADGGRTVDVDLAQPLHDWRVLFNNLLPSHVLRGGDSDFSTVLADGIPASAGRYSFAGVDRQRGIVTLNRNDRFWGEKPATVENIKFREVTDIAQGRELLRTGQIKFLDITPTEVAREAFELMPNTQVRTTTTSLNLQLIANTHLTLEQRADLQSLIDVHTVARIAMGRSTDLGVGDQPYEPHADHLMSLGRPVRIGVDPSDPEAQMAARVLSDVLARKSVKTQLVETDTTDLIGSK
- soluble on expression in E. coli: not soluble

Sequence: MSLRAQGEVVLSIDGEPVKRSEFEYYFRKSSHRTPLSFLPSFINYKLKVRYAHDMGIDTLSVFRRQVDWYRGKLLRTYLADAEKEEQAARRLYLQGEQRLQANDWIKIAHISKYLSQNASRQEEMRVRQQMDSVYEALREGADFATLARRYSDDEACKNVGGVLPWMPVNKNMQEWIDKLESLERNKISAPFYSPMGIHIVKWIDRRQGVSFEEKREQLLNYLEKNGNCTWKELSAEQKEELEFRVQELQDGLLAAYLSQKYQSGDEAWNEDDLERFFKQHKSDYAWELPHYRGAVIHCKDRKTASAIKKQLKKKPVSQWKDILHTLTGDDASSKVRMEAGVFQIGTNRYIDKLVFKCGSFQPEPDLPYTFVMGKKLKKGPESYEDVREAVVKDYLTVYEDAWLKDLKRKYKVEINQEVLKTVNNNGSEGHHHHHH
- soluble on expression in E. coli: not soluble

Sequence: MGSDKIHHHHHHMQPHPETTPVTSCTIIDATDRSIRQTLGETSTLARLIWVDAGLASPPLCSGLARCGRCRVRITEAAPAPHEDDREFFSAEDISAGWRLACRHAPAHGMVVHVPLPVMPHRHASRPKHPGPFRLAVDLGTTSLQWSLLAPDGTVAAQGSETNPQMGAGSDVMSRIAMARSDKGRGRLRELVLQALRRIVADVEGTPATADAVPPAGSGDEPTTACGYESRVEELCVAGNTAMTAILADESVEGLASAPYRLEMRGGTALALPGLPPAWIPPLPAPFVGGDLSAGYLAVLTDHAPAFPFVLADLGTNGEFVLALSPERTLVTSVALGPALEGIGLTFGTVAQRGAITSFTLTPGGLVPYVLDGGEADGISGTGYISLVHALLRAGLLDVDGRFIQSPSSPLAARMARSIVSHRGEPCLPLARGLYLAARDIEEILKVKAAFSLAFERLLATAQMPSHALSGIHLAGALGQHALPADLEGLGFIPPGSGGRTRAVGNTSLRGAELLLTSPPLRDTLNTWREGCTVVDLTAAPDFSAAFLRHMHFHF
- soluble on expression in E. coli: not soluble

Sequence: MEFAGTIFIELTFTPKVPRLNRDDLNKEMDRLDSSMAMRPIPPLPTESEYDYVHGSTMRQITPQCVSTSHEDKDEGQPYRNGNVFSMSSKSDTAVLANSNDPIILPPTFSASMGTTSTLETNDTAISNTSNTKFHFANLRKLKEKINIFKNPDSST
- soluble on expression in E. coli: not soluble

Sequence: MESVAAESAPAPENEHSQETPESNSSVYTTFMKSHRCYDLIPTSSKLVVFDTSLQVKKAFFALVTNGVRAAPLWDSKKQSFVGMLTITDFINILHRYYKSALVQIYELEEHKIETWREVYLQDSFKPLVCISPNASLFDAVSSLIRNKIHRLPVIDPESGNTLYILTHKRILKFLKLFITEFPKPEFMSKSLEELQIGTYANIAMVRTTTPVYVALGIFVQHRVSALPVVDEKGRVVDIYSKFDVINLAAEKTYNNLDVSVTKALQHRSHYFEGVLKCYLHETLEAIINRLVEAEVHRLVVVDEHDVVKGIVSLSDILQALVLTGGEKKP
- soluble on expression in E. coli: soluble

Sequence: MGSSHHHHHHSSGLVPRGSHMQQLPKAIIIGVRKGGTRALLEMLNLHPAVVKASQEIHFFDNDENYGKGIEWYRKKMPFSYPQQITIEKSPAYFITEEVPERIYKMNSSIKLLIIVREPTTRAISDYTQVLEGKERKNKTYYKFEKLAIDPNTCEVNTKYKAVRTSIYTKHLERWLKYFPIEQFHVVDGDRLITEPLPELQLVEKFLNLPPRISQYNLYFNATRGFYCLRFNEIFNKCLAGSKGRIHPEVDPSVITKLRKFFHPFNQKFYQITGRTLNWP
- soluble on expression in E. coli: soluble

Sequence: MIITIARQCGCGGHEVARILANKLGMELFDKKKLLEEANQLGQAEEHSNFFNEVPINSLLYGIAMGFGNTKPMDKSLKLVKAITENKDAIIIGRCANIIYKDSKDVTSVYLFADKEFRIKYLMERDGISEKEAEKYIKEVDEKRTSFHKYCTDTVWGDAKEYQLCLDTGKIGFEKTAELIMNYINAKKES
- soluble on expression in E. coli: not soluble

Sequence: MKYDWILFDADETLFHFDAFKGLQLMFSRKGVDFTEQDFAHYQTVNKPLWVDYQDGKVTADELKHKRFTEWAEKLNTTTADLNSAFLEAMADICS
- soluble on expression in E. coli: not soluble

Sequence: MVRIYTLTLAPSLDSATITPQIYPEGKLRCTAPVFEPGGGGINVARAIAHLGGSATAIFPAGGATGEHLVSLLADENVPVATVEAKDWTRQNLHVHVEASGEQYRFVMPGAALNEDEFRQLEEQVLEIESGAILVISGSLPPGVKLEKLTQLISAAQKQGIRCIVDSSGEALSAALAIGNIELVKPNQKELSALVNRELTQPDDVRKAAQEIVNSGKAKRVVVSLGPQGALGVDSENCIQVVPPPVKSQSTVGAGDSMVGAMTLKLAENASLEEMVRFGVAAGSAATLNQGTRLCSHDDTQKIYAYLSR
- soluble on expression in E. coli: soluble

Sequence: YQQDQVVKEDNIEAVGKKLHKYNTQFQEKSREYDRLYEEYTRTSQEIQMKRTAIEAFNETIKIFEEQCQTQERYSKEYIEKFKREGNEKEIQRIMHNYDKLKSRISEIIDSRRRLEEDLKKQAAEYREIDKRMNSIKPDLIQLRKTRDQYLMWLTQKGVRQKKLNEWLGN
- soluble on expression in E. coli: soluble

Sequence: MAVGSVATLATEPGEDAFRKLFRFYRQSRPGTADLEGVIDFSAAHAARGKGPGAQKVIKSQLNVSSVSEQNAYRAGLQPVSKWQAYGLKGYPGFIFIPNPFLPGYQWHWVKQCLKLYSQKPNVCNLDKHMSKEETQDLWEQSKEFLRYKEATKRRPRSLLEKLRWVTVGYHYNWDSKKYSADHYTPFPSDLGFLSEQVAAACGFEDFRAEAGILNYYRLDSTLGIHVDRSELDHSKPLLSFSFGQSAIFLLGGLQRDEAPTAMFMHSGDIMIMSGFSRLLNHAVPRVLPNPEGEGLPHCLEAPLPAVLPRDSMVEPCSMEDWQVCASYLKTARVNMTVRQVLATDQNFPLEPIEDEKRDISTEGFCHLDDQNSEVKRARINPHSLEHHHHHH
- soluble on expression in E. coli: soluble

Sequence: MSSDNEIEDLKRAFIFALRKKFPRDSSSSIAIATVNLIRKIIFRENPKTMNDLQVSLANHCKKLHGAERSELIIINIGLMITKLARDEVLQKKGGGEPEPLYTLWRDDDETIKKLKTADMKKIKKDLQASIKELVTEIESSRECIASQSTELLFNNDVVLVHSLRSSQTMHNFLSHAVKSGRKHRVIDVVDEEEHIESTPDFATAIELYEVASKMPEASKVVLVAAAYFPDGSCLVPAGGHQIALLAKRHCVPVYVLAPFYKLCPFFMTNPDSLHTFRSNSLPFDLSAKSAGLVDCLHPAFDCLQSDLVTLFVSNTSCVIPSHVNRLKEDYYHSQDIADY
- soluble on expression in E. coli: not soluble

Sequence: SLVPQGGPVLCRDEMEEWSASEAMLFEEALEKYGKDFNDIRQDFLPWKSLASIVQFYYMWKTTDRYIQQKRLKAAEAEG
- soluble on expression in E. coli: soluble

Sequence: MGSDKIHHHHHHMKIAVLPGDGIGPEVVREALKVLEVVEKKTGKTFEKVFGHIGGDAIDRFGEPLPEETKKICLEADAIFLGSVGGPKWDDLPPEKRPEIGGLLALRKMLNLYANIRPIKVYRSLVHVSPLKEKVIGSGVDLVTVRELSYGVYYGQPRGLDEEKGFDTMIYDRKTVERIARTAFEIAKNRRKKVTSVDKANVLYSSMLWRKVVNEVAREYPDVELTHIYVDNAAMQLILKPSQFDVILTTNMFGDILSDESAALPGSLGLLPSASFGDKNLYEPAGGSAPDIAGKNIANPIAQILSLAMMLEHSFGMVEEARKIERAVELVIEEGYRTRDIAEDPEKAVSTSQMGDLICKKLEEIW
- soluble on expression in E. coli: soluble

Sequence: MKRLRCIREIERQRGTRVIAMIHRQEALTFLGIPIYKFITIEDSEEILRAIRLTPEDMPIDLIIHTPGGLALASEQIALALKEHKAKTTVIIPHYAMSGGSLIALAADEIIMDKNAVMGPVDPQIGQYPAASILEAYYRKGEKVSDETLILVDISKKAIKQMEEFVYELLKDKYGDEKAKEIAKKLTSGTW
- soluble on expression in E. coli: not soluble

Sequence: MWGRYEKLRIFYDPTRAIYDSGADYLTREKHRLVVIANSAWGLLLNLSCYYDEVLEKRKIPFGKQEIDDDMDKVSALKRKFKDISEIKVGDGWEYPFNYEQGMKELDEVLLKYIPFFEEER
- soluble on expression in E. coli: not soluble

Sequence: TTILVVRRNGQTVMGGDGQVTFGSTVLKGNARKVRKLGEGKVLAGFAGSVADAMTLFDRFEAKLREWGGNLTKAAVELAKDWRTDRVLRRLEALLLVADKENIFIISGNGEVIQPDDDAAAIGSGGPYALAAAKALLRNTDLSAREIVEKAMTIAGEICIYTNQNIVIEEV
- soluble on expression in E. coli: soluble

Sequence: SLKVNNLIAGALNLNSKDYKKSGKKVSFDKNNLFSSIFQAESVKEDKHFILLENGEFNLDLIKSMLDGINETGERLLSEPSRQNVIFYKKVISEFISIIISSSVCLKEQKGGNLGDPKRPKYRIIKIINDKLDKLAYSVLQNQMTQIKLLDSIEEIQGLLVNLLM
- soluble on expression in E. coli: soluble

Sequence: MGSDKIHHHHHHMMSQEQNDLITRVGPGTPCGKLMRAYWQPAALVDELEGERPIKPVRLLGEDLVLFKDETGRYGLIDRDCPHRGADLAFGRLENGGLRCAFHGWLFDVDGKCIDTPAEPAGSPLCKNIKQRAFPVVAKGGILWAYLGAGEPPAFPEIDCFIAPDTHVFAFKGLMECNWLQALEVGIDPAHASFLHRFFEDEDTSQAYGKQFRGASAGSDLPMTKVLREYDRPIINVEHTEYGLRLIALREIDDERTHVRVTNQLFPHGFVIPMSTEMTITQWHVPVDDTHCYWYAIFTSYAAPVDKVKMRDQRLELYELPNYKSRRNKTNDYGFDPHEQATATYTGMGLDINVHDQWAVESMGAIQDRTREHLGQSDKAIIQYRRLLRQEIEKAASGGKPLLALDEAAARAIQGPATMDGIGPSRGWETYWMEVDVKRRRGAPWAVPVPSEIAAKVPHLTAAE
- soluble on expression in E. coli: not soluble
